Measurements as given in patent US20250296912A1.

Target: prostate specific antigen (Homo sapiens)

IC50 (48 hour exposure), Prostate LnCAP (positive PSA) [nM]	IC50 (48 hour exposure), Prostate DuPro (trace PSA) [nM]	Substance
> 20000	–	Analog 215 (Illudin S-Pro-Ser-Ser-Gln-Chg-Ser-Ser-Hyp-Ac) (peptide)
190	280	Analog 216 (Illudin M-Pro-Ser-Ser-Gln-Chg-Ser-Ser-Hyp-Ac) (peptide)
810	3500	Analog 210 (Ac-Hyp-Ser-Ser-Chg-Gln-Ser-Ser-Pro-O-(CH2)3-acylfulvene) (peptide)
